The source of these data is the Human Domainome abundance scans (Beltran et al. 2025).

± gives the uncertainty stated by the source.

B1: PDZ and LIM domain protein 2, residues 284 to 339; numbered along this chain, Q96JY6 (parent)
chain: HTCEKCSTSIANQAVRIQEGRYRHPGCYTCADCGLNLKMRGHFWVGDELYCEKHAR
B2: Chromodomain-helicase-DNA-binding protein 4, residues 623 to 675; numbered along this chain, Q14839 (parent)
chain: MIHRILNHSVDKKGHVHYLIKWRDLPYDQASWESEDVEIQDYDLFKQSYWNHR

Variants of B1 are the subject of one series. Description: abundance fitness (aPCA) (normalised: wild type 0, dead -1); higher = more abundant; growth selection in yeast, the domain comes from the species named. The settings on record: Homo sapiens.
In the case of HTCEKCSTSIANQAVRIQEGRYRHPGCYTCVDCGLNLKMRGHFWVGDELYCEKHAR [A31V], the abundance fitness was -0.029 ± 0.075.

On to HTCSKCSTSIANQAVRIQEGRYRHPGCYTCADCGLNLKMRGHFWVGDELYCEKHAR [E4S], for which the abundance fitness turned out to be 0.014 ± 0.063.

HTCAKCSTSIANQAVRIQEGRYRHPGCYTCADCGLNLKMRGHFWVGDELYCEKHAR [E4A]: the abundance fitness was -0.245 ± 0.068.

With HTCDKCSTSIANQAVRIQEGRYRHPGCYTCADCGLNLKMRGHFWVGDELYCEKHAR [E4D], the abundance fitness was -0.063 ± 0.17.

Consider HTCHKCSTSIANQAVRIQEGRYRHPGCYTCADCGLNLKMRGHFWVGDELYCEKHAR [E4H], for which the abundance fitness was found to be 0.069 ± 0.15.

Take HTCEKCSTSIANQAVRGQEGRYRHPGCYTCADCGLNLKMRGHFWVGDELYCEKHAR [I17G]: the abundance fitness is -0.239 ± 0.083.

For the variant HTCEKCSTSIANQAVRDQEGRYRHPGCYTCADCGLNLKMRGHFWVGDELYCEKHAR [I17D], the abundance fitness is -0.232 ± 0.3.

On to HTCEKCSTSIANQAVRQQEGRYRHPGCYTCADCGLNLKMRGHFWVGDELYCEKHAR [I17Q], for which the abundance fitness was -0.535 ± 0.14.

As for HTCEKCSTSIANQAVRIQEGRYRHPGCYTCADCGLNLKMRGHFWVGDELYCEKHWR [A55W], the abundance fitness worked out at 0.063 ± 0.056.

For the variant HTCEKCSTSIANQAVRIQEGRKRHPGCYTCADCGLNLKMRGHFWVGDELYCEKHAR [Y22K], the abundance fitness was -0.311 ± 0.14.

HTCEKCSESIANQAVRIQEGRYRHPGCYTCADCGLNLKMRGHFWVGDELYCEKHAR [T8E]: the abundance fitness amounted to 0.387 ± 0.1.

With HTCEKCSTSIGNQAVRIQEGRYRHPGCYTCADCGLNLKMRGHFWVGDELYCEKHAR [A11G], the abundance fitness was 0.017 ± 0.059.

Consider HTCEKCSTSIANQAVRIQEGRYRHPGCYTCADCGLNLKMRGHFWVMDELYCEKHAR [G46M], for which the abundance fitness is -0.276 ± 0.14.

As to HTCEKCSTSIANQAVRIQEGRYRHPGCYTCADCGLNLKMRGHFWVRDELYCEKHAR [G46R], the abundance fitness was -0.031 ± 0.067.

As to HTCEKCSTSIANQAVRIQEGRYRHPGCYTSADCGLNLKMRGHFWVGDELYCEKHAR [C30S], the abundance fitness is -0.921 ± 0.15.

Regarding HTCEKCSTSIANQAVRIQEGRYRHPGCYTCADCGLNLKMRGHFWVGDELYCFKHAR [E52F], the abundance fitness was -0.075 ± 0.14.

As to HTCEKCSTSIANQAVRIQEGRYRHPGCYTCAHCGLNLKMRGHFWVGDELYCEKHAR [D32H], the abundance fitness came out at 0.027 ± 0.11.

With HTCEKCSTSIANQAVRIQEGRYRHPGCYTCAICGLNLKMRGHFWVGDELYCEKHAR [D32I], the abundance fitness was -0.284 ± 0.11.

For the variant HTCEKCSTSIANQAVRIQEGRYRHPGCYTCATCGLNLKMRGHFWVGDELYCEKHAR [D32T], the abundance fitness came to 0.057 ± 0.061.

Consider HTCEKCSTSIANQAVRIQEGRYRHPGCYTCADCGLMLKMRGHFWVGDELYCEKHAR [N36M], for which the abundance fitness was -0.07 ± 0.084.

Turning to HTCEKCSTSIANQAVRIQEGRYRHPGCYTCADCGLILKMRGHFWVGDELYCEKHAR [N36I], the abundance fitness is -0.127 ± 0.16.

HTCEKCSTSIANQAVRIQEGRYRHPGCYTCADCGLFLKMRGHFWVGDELYCEKHAR [N36F]: the abundance fitness is -0.189 ± 0.093.

Take HTCELCSTSIANQAVRIQEGRYRHPGCYTCADCGLNLKMRGHFWVGDELYCEKHAR [K5L]: the abundance fitness was determined as 0.049 ± 0.12.

For the variant HTCEKCSTSIANQAVRIQEGRYRHPGCYTCADCGLNLKMRGHFWVGDEPYCEKHAR [L49P], the abundance fitness was -0.154 ± 0.12.

As to HTCEKCSTSIANQAVRIQEGRYRHPGCYTCADCGLNLKMRGHFWVGDEGYCEKHAR [L49G], the abundance fitness was -0.286 ± 0.068.

With HTCEKCSTSIANQAVRIQEGRYRHPGCYTCADCGLNLKMRGHFWVGDESYCEKHAR [L49S], the abundance fitness was -0.341 ± 0.081.

On to HTCEKCSTSIANQAVRIQEGRYRHPGCYTCADCGLNLKMRGHFWVGDENYCEKHAR [L49N], for which the abundance fitness was -0.942 ± 0.47.

As to HTCEKCSTSIANQAVRIQEGRYRHPGCYTCADCGLNLKMRGHFWVGDECYCEKHAR [L49C], the abundance fitness is -0.108 ± 0.066.

As to HTCEKCSTSIANQAVRIQEMRYRHPGCYTCADCGLNLKMRGHFWVGDELYCEKHAR [G20M], the abundance fitness is -0.154 ± 0.068.

For HTCEKCSTSIANQAVRIQEERYRHPGCYTCADCGLNLKMRGHFWVGDELYCEKHAR [G20E], the abundance fitness was -0.209 ± 0.15.

In the case of HTCEKCSTSIANQAVRIQEVRYRHPGCYTCADCGLNLKMRGHFWVGDELYCEKHAR [G20V], the abundance fitness was -0.363 ± 0.069.

With HTCEKCSTSIANQAVRIQEGRYRHPGCYTCADCGLNLKMRGHFIVGDELYCEKHAR [W44I], the abundance fitness is 0.352 ± 0.14.

With HTCEKCSTSIANQAVRIQEGRYRHPGCYTCADCGLNLKMRGHFSVGDELYCEKHAR [W44S], the abundance fitness was 0.027 ± 0.098.

On to HTCEKCSTSIANQAVRIQEGRYRHPGCYTCADCGLNLKMRGHFVVGDELYCEKHAR [W44V], for which the abundance fitness amounted to 0.044 ± 0.09.

HTCEKCSTSIANQAVRIQEGRYRHPGCYTCADCGLNTKMRGHFWVGDELYCEKHAR [L37T]: the abundance fitness is -0.395 ± 0.12.

Turning to HTCEKCSTSIANQAVRIQEGRYRHPGCYTCADCGLNLKMRGHFWVGEELYCEKHAR [D47E], the abundance fitness was -0.12 ± 0.14.

As for HTCEKCSTSIANQAVRIQEGRYRLPGCYTCADCGLNLKMRGHFWVGDELYCEKHAR [H24L], the abundance fitness was -0.898 ± 0.077.

In the case of HTGEKCSTSIANQAVRIQEGRYRHPGCYTCADCGLNLKMRGHFWVGDELYCEKHAR [C3G], the abundance fitness was -1.17 ± 0.17.

As for HTCEKCSTSIANQAVRIQEGRYRHPGCYTCADCGYNLKMRGHFWVGDELYCEKHAR [L35Y], the abundance fitness came out at 0.01 ± 0.12.

Consider HTCEKCSTSIANQAVRIQEGRYRHPGCYTCADEGLNLKMRGHFWVGDELYCEKHAR [C33E], for which the abundance fitness is -1.05 ± 0.18.

With HTCEKCSTSIANQAVRIQEGRYRHPGCYTCADCGLNLKMRGHFWVGDELYCEAHAR [K53A], the abundance fitness is -0.198 ± 0.13.

As to HTCEKCSTSIANQAVRIQEGRYRHPGCYTCADCFLNLKMRGHFWVGDELYCEKHAR [G34F], the abundance fitness was -0.196 ± 0.13.

HTCEKCSTSIANQAVRIQEGRYRHPGCYTCADCGLNLKMRGHFWVGDELYCEKMAR [H54M]: the abundance fitness was -0.901 ± 0.25.

With HTCEKCSTSIANQAVRIQEGRYRHPGCYTCADCGLNLKMRGHFWVGDELYCEKYAR [H54Y], the abundance fitness is -0.284 ± 0.15.

Variants of B2 are the subject of a further series. Described as above. The settings on record: Homo sapiens.
As for R53V, the abundance fitness was -0.09 ± 0.14.

On to R53Y, for which the abundance fitness was determined as 0.011 ± 0.2.

Take R53S: the abundance fitness was -0.141 ± 0.19.

R53T: the abundance fitness is -0.221 ± 0.18.

For the variant R53W, the abundance fitness is -0.044 ± 0.16.
